These are literature values, as cited in patent US20220062372A1, “METHODS FOR TREATING DISEASE AND REDUCING DRUG-INDUCED LIVER INJURY IN PATIENT POPULATIONS” (Ten Peaks LLC, priority 2020, published 2022).

For the series the following is noted: background description of the marketed drug.

B1: KEVZARA: IL-6 receptor antagonist (antibody, chains of the INN, looked up, V domains shown)
VH: EVQLVESGGGLVQPGRSLRLSCAASRFTFDDYAMHWVRQAPGKGLEWVSGISWNSGRIGYADSVKGRFTISRDNAENSLFLQMNGLRAEDTALYYCAKGRDSFDIWGQGTMVTVSS
VL: DIQMTQSPSSVSASVGDRVTITCRASQGISSWLAWYQQKPGKAPKLLIYGASSLESGVPSRFSGSGSGTDFTLTISSLQPEDFASYYCQQANSFPYTFGQGTKLEIK
As to B1, the “hepatic adverse reactions reported in patients” value is “associated with a higher incidence of transaminase elevations”.
